In paper PMC7187366:
Read-outs that look alike come from different tables or passages of the source.

Key:
[1] = target: T1, OsPIL15 (Oryza sativa, UniProt Q0JNI9 1-637); assay: competition
T1 sequence: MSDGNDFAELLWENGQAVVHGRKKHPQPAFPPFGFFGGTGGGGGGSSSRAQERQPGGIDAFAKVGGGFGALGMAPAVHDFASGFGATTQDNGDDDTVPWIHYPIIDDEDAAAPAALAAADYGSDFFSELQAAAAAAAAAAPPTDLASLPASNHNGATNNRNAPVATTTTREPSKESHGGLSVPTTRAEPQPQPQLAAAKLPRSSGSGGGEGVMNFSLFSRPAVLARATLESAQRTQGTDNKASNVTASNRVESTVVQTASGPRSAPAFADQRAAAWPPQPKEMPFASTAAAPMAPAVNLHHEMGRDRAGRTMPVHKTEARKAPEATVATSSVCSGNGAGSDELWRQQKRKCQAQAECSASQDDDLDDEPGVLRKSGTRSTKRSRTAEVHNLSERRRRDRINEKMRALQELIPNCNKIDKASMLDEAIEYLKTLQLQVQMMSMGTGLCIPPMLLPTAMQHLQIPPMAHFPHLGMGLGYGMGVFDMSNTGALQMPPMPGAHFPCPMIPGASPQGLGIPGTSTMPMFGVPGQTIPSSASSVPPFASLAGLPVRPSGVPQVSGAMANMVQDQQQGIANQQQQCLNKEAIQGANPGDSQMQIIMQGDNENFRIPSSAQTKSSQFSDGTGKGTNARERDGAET

[2] = target: T1, OsPIL15; assay: competition; remark: listed apart in the source

B1: Probe Bm (mutant G-box) (dsDNA)
DNA 1: ATTTTCCTGACTTCACTATGACTTGTT
DNA 2: AACAAGTCATAGTGAAGTCAGGAAAAT
binding result [1]: no binding

B2: Probe Am (mutant G-boxes) (dsDNA)
DNA 1: TGATCTGACTTTAAACCGGTGACTTTCGCC
DNA 2: GGCGAAAGTCACCGGTTTAAAGTCAGATCA
binding result [2]: no binding
